Experiment [1] deals with T1, Human fibrinogen (Homo sapiens, UniProt P02671+P02675+P02679).
T1 construct: purchased Enzymes Research Labs (South Bend, Ind.)
T1 sequence (P02671 20-629 isoform P02671-2 limits assumed): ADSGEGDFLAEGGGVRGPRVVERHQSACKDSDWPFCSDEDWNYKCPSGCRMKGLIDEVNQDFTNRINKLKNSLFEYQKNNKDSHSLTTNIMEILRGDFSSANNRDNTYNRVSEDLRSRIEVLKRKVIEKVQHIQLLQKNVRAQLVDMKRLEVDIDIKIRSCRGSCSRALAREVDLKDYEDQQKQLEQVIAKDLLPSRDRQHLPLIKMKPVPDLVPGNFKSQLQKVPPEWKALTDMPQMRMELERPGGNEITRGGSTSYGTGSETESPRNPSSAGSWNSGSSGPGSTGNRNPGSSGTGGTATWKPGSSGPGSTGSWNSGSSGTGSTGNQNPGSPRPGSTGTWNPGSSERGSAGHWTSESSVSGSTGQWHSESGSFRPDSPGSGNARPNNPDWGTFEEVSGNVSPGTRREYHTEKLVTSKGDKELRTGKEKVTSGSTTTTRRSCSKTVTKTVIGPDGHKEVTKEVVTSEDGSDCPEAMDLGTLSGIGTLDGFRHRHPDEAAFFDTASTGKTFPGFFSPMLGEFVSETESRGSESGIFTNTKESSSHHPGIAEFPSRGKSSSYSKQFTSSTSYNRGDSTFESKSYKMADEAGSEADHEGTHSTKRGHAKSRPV
T1 sequence (P02675 31-491): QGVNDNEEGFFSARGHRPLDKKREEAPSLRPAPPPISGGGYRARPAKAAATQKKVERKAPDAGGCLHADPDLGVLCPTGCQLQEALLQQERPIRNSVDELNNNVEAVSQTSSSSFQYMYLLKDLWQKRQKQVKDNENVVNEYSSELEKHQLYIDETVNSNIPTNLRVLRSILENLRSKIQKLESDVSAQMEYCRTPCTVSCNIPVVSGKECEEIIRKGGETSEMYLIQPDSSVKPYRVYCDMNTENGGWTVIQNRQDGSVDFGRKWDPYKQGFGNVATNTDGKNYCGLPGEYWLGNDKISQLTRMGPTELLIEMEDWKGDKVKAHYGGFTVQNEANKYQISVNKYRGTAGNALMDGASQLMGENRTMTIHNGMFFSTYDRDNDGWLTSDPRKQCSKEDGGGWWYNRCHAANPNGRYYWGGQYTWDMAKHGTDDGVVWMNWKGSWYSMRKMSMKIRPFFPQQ
T1 sequence (P02679 27-437 isoform P02679-2 limits assumed): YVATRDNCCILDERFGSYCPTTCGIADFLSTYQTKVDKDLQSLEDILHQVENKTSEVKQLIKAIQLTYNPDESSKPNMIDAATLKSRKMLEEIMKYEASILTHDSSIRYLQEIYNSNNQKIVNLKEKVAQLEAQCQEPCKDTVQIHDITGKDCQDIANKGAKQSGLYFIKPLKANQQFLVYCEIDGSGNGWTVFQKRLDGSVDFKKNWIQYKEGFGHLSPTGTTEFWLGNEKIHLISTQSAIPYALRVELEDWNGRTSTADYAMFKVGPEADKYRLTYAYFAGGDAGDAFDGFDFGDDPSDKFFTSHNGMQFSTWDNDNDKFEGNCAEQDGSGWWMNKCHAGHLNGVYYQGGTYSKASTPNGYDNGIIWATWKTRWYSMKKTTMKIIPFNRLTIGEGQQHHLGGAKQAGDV
Briefly: Fibrinogen recovery from peptide columns (acetic acid elution, A280 of eluted peak). In kind it is binding. On the procedure:
(§1) Dried peptide resins were packed into 0.6 ml columns (0.4 cm×5 cm, Thomson, Va.), and evaluated on a Waters HPLC-system (Milford, Mass.) with a UV-detector (Knauer, Germany) monitoring at 280 nm. The columns were conditioned with over 5 volumes of 20% ethanol in water, followed by a minimum of 5 volumes of water.
(§2) Human fibrinogen was purchased from Enzymes Research Labs (South Bend, Ind.), and 25% human serum albumin (HSA) was a donation from the Bayer Corporation (Clayton, N.C.). The following buffers were used for both dissolving fibrinogen and diluting HSA.
(§3) This column was equilibrated in Buffer A, and the following program was used for each column run: From time 0-15 minutes, Buffer A was applied. At time 5 minutes, a 50 μl sample dissolved in buffer A was injected onto the column with a 100 μl sample loop. From time 15-20 minutes, bound protein was step-eluted by switching to 0.1M acetic acid, pH 2.9, followed by 0.4M acetic acid, pH 2.6, from time 20-21 minutes. The column was then re-equilibrated with Buffer A from time 21-30 minutes. During the column run, the flow rate was 1 ml/min from time 0-21 minutes; it was increased to 2 ml/min from time 21-30 minutes.
(§4) In total, seven injections were made: #1 Buffer A (blank); #2 100 μg/μl HSA; #3 20 μg/μl Fibrinogen; #4 Mixture of 5 μg/μl Fibrinogen and 90 μg/μl HSA; #5 Mixture of 10 μg/μl Fibrinogen and 75 μg/μl HSA; #6 Mixture of 20 μg/μl Fibrinogen and 50 μg/μl HSA; #7 20 μg/μl Fibrinogen.
(§5) After equilibrating in Buffer B, the following program was used for each column run: From time 0-15 minutes, Buffer B was applied. At time 5 minutes, 50 μL sample dissolved in Buffer B was injected onto the column with a 100 μl sample loop. From time 15-20 minutes, bound protein was step-eluted by switching to 20 mM acetic acid, pH 3.2, followed by 0.4M acetic acid, pH 2.6, from time 20-23 minutes. The column was then re-equilibrated with Buffer B from time 23-30 minutes. During the column run, the flow rate was 1 ml/min from time 0-23 minutes, then it was increased to 2 ml/min from time 23-30 minutes. In total, for each column seven injections were made: #1 Buffer B (blank); #2 for WQEHYN-column: 50 μg/μl HSA, and for YENYGY-column: 100 μg/μl HSA; #3 20 μg/μl Fibrinogen; #4 Mixture of 5 μg/μl Fibrinogen and […] HSA; #5 Mixture of 10 μg/μl Fibrinogen and 50 μg/μl HSA; #6 Mixture of 20 μg/μl Fibrinogen and 50 μg/μl HSA; #7 20 μg/μl Fibrinogen.
In parts (b) and (c), eluted protein was collected in 1.25 ml fractions, some in which pH was measured. The fractions were not re-adjusted to a neutral pH. The purity of the eluted protein was assessed by SDS-PAGE (Biorad) of non-reduced as well as of reduced samples. Broad Range Standards (Biorad) were used as molecular weight standards, and dithiothreitol (Sigma) was used as the reducing agent. Eluted protein was centrifuged and supernatant collected for determination of fibrinogen concentration by A280.

In experiment [2] the target is T1, Human fibrinogen. Briefly: Fibrinogen binding to peptide resin columns (affinity chromatography, UV 280 nm). How it is done: as §1, §2
Peptide resin columns were equilibrated in Buffer A. The following program was used for each column run: From time 0-15 minutes, Buffer A was applied. At time 10 minutes, a 50 μl sample was injected onto the column with a 50 μl sample loop. From time 15-20 minutes, bound protein was step-eluted by switching to 0.4M acetic acid (Fisher), pH 2.6. The column was then re-equilibrated with Buffer A from time 20-30 minutes. A flow rate of 1 ml/min was used. For each column two injections were made: #1 Buffer A (blank); #2 10 μg/μl Fibrinogen dissolved in Buffer A.
as §3, §4, §5

Experiment [3] deals with T2, human serum albumin (HSA) (Homo sapiens, UniProt P02768).
T2 construct: purchased Bayer Corporation (Clayton, N.C.), donated rather than bought
The experiment in a line: HSA binding to peptide resin columns (affinity chromatography). As to conditions: conditions of the experimental section, FIGS. 3-5. How it is done: as §1, §2
This column was equilibrated in Buffer A, and the following program was used for each column run: From time 0-15 minutes, Buffer A was applied. At time 5 minutes, a 50 μl sample dissolved in buffer A was injected onto the column with a 100 μl sample loop. From time 15-20 minutes, bound protein was step-eluted by switching to 0.1M acetic acid, pH 2.9, followed by 0.4M acetic acid, pH 2.6, from time 20-21 minutes. The column was then re-equilibrated with Buffer A from time 21-30 minutes. During the column run, the flow rate was 1 ml/min from time 0-21 minutes; it was increased to 2 ml/min from time 21-30 minutes. […]

The mark [4] stands for this setting: Column run #3, injected 1000 μg fibrinogen (20 μg/μl fibrinogen alone).
Where [5] appears, read: Column run #4, injected 250 μg fibrinogen (5 μg/μl, mixture with HSA).
Setting [6] is: Column run #5, injected 500 μg fibrinogen (10 μg/μl, mixture with HSA).
[7] abbreviates: Column run #6, injected 1000 μg fibrinogen (20 μg/μl, mixture with 50 μg/μl HSA).
Setting [8] is: Column run #7, injected 1000 μg fibrinogen (20 μg/μl fibrinogen alone).
Where [9] appears, read: conditions of the experimental section, FIGS. 3-5.

No end group written: not given here.

Regarding “Trp-Gln-Glu-His-Tyr-Asn (WQEHYN; not fully specified (C-terminus); printed as Trp-Gln-Glu-His-Tyr-Asn) [hexapeptide ligand synthesized onto TOTDA-modified Toyopearl resin]”, the “Fibrinogen recovery, column peak” value in experiment [1] (setting [4]) stood at 330 µg; in experiment [1] (setting [5]) it was 70 µg; in experiment [1] (setting [6]) it was 140 µg; in experiment [1] (setting [7]) it was 220 µg; in experiment [1] (setting [8]), 240 µg. In addition, the “fibrinogen binding to peptide column” value in experiment [2] (setting [9]) is “bound fibrinogen”. For the same substance, the “HSA binding to peptide column” value in experiment [3] is given as “none of these peptides bound HSA”.

As to “Trp-Gln-Glu-Thr-Tyr-Gln (WQETYQ; not fully specified (C-terminus); printed as Trp-Gln-Glu-Thr-Tyr-Gln) [hexapeptide ligand synthesized onto TOTDA-modified Toyopearl resin]”, the “Fibrinogen recovery, column peak” value in experiment [1] (setting [4]) was found to be 360 µg; in experiment [1] (setting [5]), 100 µg; in experiment [1] (setting [6]), 150 µg; in experiment [1] (setting [7]) it was 310 µg; in experiment [1] (setting [8]) it was 340 µg. For the same substance, in experiment [2] (setting [9]), the “fibrinogen binding to peptide column” value is given as “bound fibrinogen”. For the same substance, the “HSA binding to peptide column” value in experiment [3] was “none of these peptides bound HSA”.

For “Tyr-Glu-Asn-Tyr-Gly-Tyr (YENYGY; not fully specified (C-terminus); printed as Tyr-Glu-Asn-Tyr-Gly-Tyr) [hexapeptide ligand synthesized onto TOTDA-modified Toyopearl resin]”, the “Fibrinogen recovery, column peak” value amounted to 530 µg in experiment [1] (setting [4]); 150 µg in experiment [1] (setting [5]); 280 µg in experiment [1] (setting [6]); 520 µg in experiment [1] (setting [7]); 530 µg in experiment [1] (setting [8]). For the same substance, the “fibrinogen binding to peptide column” value in experiment [2] (setting [9]) is on record as “bound fibrinogen”.

W-E-Q-(S)-N-P (WEQSNP): the “fibrinogen binding to peptide column” value in experiment [2] (Buffer A (preliminary test / later tests)) and in experiment [2] (Buffer B) was “did not bind fibrinogen” throughout.

The record behind these values is US5783663A, “Peptide ligands for affinity purification of fibrinogen” (Bayer Corporation, priority 1998, dated 1998).
